Experimental data as given in patent US9109237B2, “Method of preparing piceatannol using bacterial cytochrome P450 and composition therefor” (priority 2008, dated 2015).

Columns and labels:
human CYP1A2 = target: T1, human CYP1A2 (Homo sapiens, UniProt P05177); details: cited from earlier work
T1 sequence (P05177 1-516): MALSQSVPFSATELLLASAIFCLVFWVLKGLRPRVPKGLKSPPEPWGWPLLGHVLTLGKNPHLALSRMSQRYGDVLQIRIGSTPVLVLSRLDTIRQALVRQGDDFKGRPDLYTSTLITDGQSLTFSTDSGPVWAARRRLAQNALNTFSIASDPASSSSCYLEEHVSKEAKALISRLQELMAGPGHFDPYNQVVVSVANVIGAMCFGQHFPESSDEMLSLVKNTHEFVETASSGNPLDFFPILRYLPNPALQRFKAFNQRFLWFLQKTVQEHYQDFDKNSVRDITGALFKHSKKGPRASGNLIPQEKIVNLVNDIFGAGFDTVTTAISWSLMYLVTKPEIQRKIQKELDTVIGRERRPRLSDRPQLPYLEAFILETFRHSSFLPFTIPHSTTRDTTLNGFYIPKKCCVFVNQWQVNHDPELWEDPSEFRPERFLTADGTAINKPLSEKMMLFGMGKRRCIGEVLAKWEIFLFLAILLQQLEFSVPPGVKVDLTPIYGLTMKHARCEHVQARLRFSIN

[1] = Resveratrol metabolite profile by HPLC and GC-MS; format: biochemical; details: HPLC, UV 320 nm
Experimental: (§1) Oxidation of trans-resveratrol, a substrate of human CYP1A2, by CYP102A1 was identified. Typical steady-state reactions for trans-resveratrol hydroxylation included 50 pmol P450 BM3 in 0.25 ml of a 100 mM potassium phosphate buffer (pH 7.4) were performed along with a specified amount of a substrate. To determine the kinetic parameter of several CYP102A1 mutants, 2 to 100 μM of trans-resveratrol was used. An NADPH-generating system was used to initiate reaction solutions (final concentrations: 10 mM glucose 6-phosphate, 0.5 mM NADP+, and 1 IU yeast glucose 6-phosphate per ml). Trans-resveratrol stocks (20 mM) were prepared in DMSO and diluted into the enzyme reactions with the final organic solvent concentration <1% (v/v). Reactions were generally incubated for 10 min at 37° C., and terminated with 105 μl of ice-cold acetic acid/methanol (95/5, v/v).
After centrifugation of the reaction mixture, the supernatant was analyzed by HPLC (Piver et al. 2004). Samples (30 μl) were injected into a Gemini C18 column (4.6 mm×150 mm, 5 μm, Phenomenex, Torrance, Calif.). The mobile phase A was water containing 87 mM of 0.5% acetic acid/acetonitrile (95/5, v/v); whereas the mobile phase B was acetonitrile/0.5% acetic acid (95/5, v/v). […] Eluates were detected by UV rays at 320 nm. […]

[2] = Kinetic parameters of piceatannol formation (3'-hydroxylation of resveratrol); format: biochemical
Experimental: as §1, with “Reactions were generally incubated for 10 min at 37° C., and terminated with 105 μl of ice-cold acetic acid/methanol (95/5, v/v).” left out
After centrifugation of the reaction mixture, the supernatant was analyzed by HPLC (Piver et al. 2004). […] Eluates were detected by UV rays at 320 nm.
Kinetic parameters (Km and kcat) were determined using nonlinear regression analysis with GraphPad PRISM software (GraphPad, San Diego, Calif., USA). The data were analyzed using the standard Michaelis-Menten equation: v=kcat[E][S]/([S]+Km), where the velocity of the reaction is a function of the rate-limiting step in turnover (kcat), the enzyme concentration ([E]), substrate concentration ([S]), and the Michaelis constant (Km).

[3] = Rates of piceatannol formation (trans-resveratrol hydroxylation) at fixed substrate concentration, HPLC; format: biochemical; details: fixed substrate concentration 100 μM trans-resveratrol
Experimental: as §1
After centrifugation of the reaction mixture, the supernatant was analyzed by HPLC (Piver et al. 2004). Samples (30 μl) were injected into a Gemini C18 column (4.6 mm×150 mm, 5 μm, Phenomenex, Torrance, Calif.). […] Eluates were detected by UV rays at 320 nm.
The ability of wild-type P450 BM3 and mutants of P450 BM3 to oxidize trans-resveratrol was measured at a fixed substance concentration (100 μM).

Molecule: Oc1cc(O)cc(C=Cc2ccc(O)c(O)c2)c1 [Piceatannol, 3,5,3′,4′-tetrahydroxystilbene]
- Inhibition of human CYP1A2 (in words) (human CYP1A2): potent inhibitor

Molecule: Oc1ccc(C=Cc2cc(O)cc(O)c2)cc1 [Resveratrol, 3,4′,5-trihydroxystilbene]
- Inhibition of human CYP1A2 (in words) (human CYP1A2): substrate and inhibitor

B1: human CYP1A2: Human cytochrome P450 1A2, prepared as disclosed by Kim et al. (2008c); comparison enzyme (protein, UniProt P05177 2-516, looked up)
Cytochrome P450 1A2: ALSQSVPFSATELLLASAIFCLVFWVLKGLRPRVPKGLKSPPEPWGWPLLGHVLTLGKNPHLALSRMSQRYGDVLQIRIGSTPVLVLSRLDTIRQALVRQGDDFKGRPDLYTSTLITDGQSLTFSTDSGPVWAARRRLAQNALNTFSIASDPASSSSCYLEEHVSKEAKALISRLQELMAGPGHFDPYNQVVVSVANVIGAMCFGQHFPESSDEMLSLVKNTHEFVETASSGNPLDFFPILRYLPNPALQRFKAFNQRFLWFLQKTVQEHYQDFDKNSVRDITGALFKHSKKGPRASGNLIPQEKIVNLVNDIFGAGFDTVTTAISWSLMYLVTKPEIQRKIQKELDTVIGRERRPRLSDRPQLPYLEAFILETFRHSSFLPFTIPHSTTRDTTLNGFYIPKKCCVFVNQWQVNHDPELWEDPSEFRPERFLTADGTAINKPLSEKMMLFGMGKRRCIGEVLAKWEIFLFLAILLQQLEFSVPPGVKVDLTPIYGLTMKHARCEHVQARLRFSIN
- Metabolites produced on oxidation of resveratrol [1]: two major metabolites: piceatannol and other hydroxylated products
- Kinetic parameters, result in words [2]: kinetic parameters could not be obtained

B2: WT: BM3 wild type; bacterial cytochrome P450 BM3 (CYP102A1) from Bacillus megaterium, SEQ ID NO:16 (protein, listed as Bacillus megaterium)
chain: TIKEMPQPKTFGELKNLPLLNTDKPVQALMKIADELGEIFKFEAPGRVTRYLSSQRLIKEACDESRFDKNLSQALKFVRDFAGDGLFTSWTHEKNWKKAHNILLPSFSQQAMKGYHAMMVDIAVQLVQKWERLNADEHIEVPEDMTRLTLDTIGLCGFNYRFNSFYRDQPHPFITSMVRALDEAMNKLQRANPDDPAYDENKRQFQEDIKVMNDLVDKIIADRKASGEQSDDLLTHMLNGKDPETGEPLDDENIRYQIITFLIAGHETTSGLLSFALYFLVKNPHVLQKAAEEAARVLVDPVPSYKQVKQLKYVGMVLNEALRLWPTAPAFSLYAKEDTVLGGEYPLEKGDELMVLIPQLHRDKTIWGDDVEEFRPERFENPSAIPQHAFKPFGNGQRACIGQQFALHEATLVLGMMLKHFDFEDHTNYELDIKETLTLKPEGFVVKAKSKKIPLGGIPSPSTEQSAKKVRKKAENAHNTPLLVLYGSNMGTAEGTARDLADIAMSKGFAPQVATLDSHAGNLPREGAVLIVTASYNGHPPDNAKQFVDWLDQASADEVKGVRYSVFGCGDKNWATTYQKVPAFIDETLAAKGAENIADRGEADASDDFEGTYEEWREHMWSDVAAYFNLDIENSEDNKSTLSLQFVDSAADMPLAKMHGAFSTNVVASKELQQPGSARSTRHLEIELPKEASYQEGDHLGVIPRNYEGIVNRVTARFGLDASQQIRLEAEEEKLAHLPLAKTVSVEELLQYVELQDPVTRTQLRAMAAKTVCPPHKVELEALLEKQAYKEQVLAKRLTMLELLEKYPACEMKFSEFIALLPSIRPRYYSISSSPRVDEKQASITVSVVSGEAWSGYGEYKGIASNYLAELQEGDTITCFISTPQSEFTLPKDPETPLIMVGPGTGVAPFRGFVQARKQLKEQGQSLGEAHLYFGCRSPHEDYLYQEELENAQSEGIITLHTAFSRMPNQPKTYVQHVMEQDGKKLIELLDQGAHFYICGDGSQMAPAVEATLMKSYADVHQVSEADARLWLQQLEEKGRYAKDVWAG
- Rate of piceatannol formation [3]: 0.22 ± 0.01 nmol product/min/nmol P450
- Metabolites produced on oxidation of resveratrol [1]: only one major metabolite
